Test results: article PMC9741609, “A widely distributed family of eukaryotic and bacterial deubiquitinases related to herpesviral large tegument proteins” (Nature Communications, 2022)

Molecular target: T1, ubiquitin-PA (C-terminally propargylated ubiquitin 1-75) (human, UniProt P0CG48 1-75, C-terminal propargylamide (PA))
T1 construct: also called Ub-PA; wildtype Ub-PA; not shown: intein (from the vector pTXB1), C-terminal, cleaved
Experiment: crystal structure; covalent complex: 1.2 mM Wc-VTD1 incubated with 760 µM ubiquitin-PA for 18 h at 4 °C, unreacted proteins removed by SEC; crystals in 0.1 M BisTris propane pH 7.0, 2.0 M ammonium citrate tribasic at 20 °C
Settings: both partners purified

B1: Wc-VTD1 catalytic domain (aa279-494) (enzyme)
chain: KMPEEEQDSLAAFSRIEANITQYDPLLDNAGKSACTCICLKAAEMLLEASPDQVNAGLIDDILVEGVADYNRFKVGGVVEHTSVENYELNTFELKRLEFRDVDNPFSAEGNPYAGTLDSFAKMMEKASDSKDLPKPVALVMTKSNMTITIVIRPDGKYWLFDPHGTNGKGAYIESCNTDELIKKIKEIFPKTSYPGMTEDENLGFNSFEAYAVRRS
notes: also called wcw_1294; Waddlia VTD1; source: E. coli Rosetta (DE3) pLysS, purified (HisTrap, SEC)
B1: binds.
